Data from patent US20200283536A1 (Pfizer, published 2020).
Read-outs that look alike come from different tables or passages of the source.

B1: 16D6-CPI (antibody, V domains shown)
VH: QVQLKESGPGLVAPSQSLSITCTVSGFSLTNFDISWIRQPPGKGLEWLGVMWTGGGTNYNSAFMSRLSISRDISKSQVSLKMSSLQTDDTAIYYCVRGDTYFFAMDYWGQGTSVTVSS
VL: DIVMSQSPSSLAVSAGEKVTMSCKSSQSLLSSGTRKNFLSWYQQKTGQSPKLLIYWASTRGSGVPDRFTGSGSGTDFTLTISSVQTEDLAVYYCKQSYNLYTFGGGTKLEIKR
modifications: CPI agent through an AcLysValCitPABC linker, DAR ~2; site not stated for this antibody
B2: h18G3-AcLysValCitPABC-DMAE-CO_CPI-000638314 (antibody, IgG1, V domains shown)
VH: EVQLVESGGGLVQPGGSLRLSCAASGFSLTSGDISWVRQAPGKGLEWVAVIWSGGGTNYGSRLMSRFTISRDNAKNSLYLQMNSLRAEDTAVYYCARDWGNFYFDYWGQGTLVTVSS
VL: DIQMTQSPSSLSASVGDRVTITCKSSQSLLSSGTRKNYLAWYQQKPGKAPKLLIYWASTRQSGVPSRFSGSGSGTDFTLTISSLQPEDFATYYCSQSYNLYTFGQGTKLEIKR
modifications: AcLysValCitPABC-DMAE-CO_CPI linker-agent conjugated site-specifically at Q296 (LLQG tag), DAR ~2
B3: 18G3 conjugated to CTI (glucuronide) (antibody, V domains shown)
VH: B2 VH
VL: B2 VL
modifications: CTI (glucuronide) agent conjugated; linker and site not stated
B4: 18G3 conjugated to iPr-calicheamicin (antibody, V domains shown)
VH: B2 VH
VL: B2 VL
modifications: iPr-calicheamicin conjugated; linker and site not stated
B5: 20D7-CPI (antibody, V domains shown)
VH: EVQLVESGGGLVQPGGSLRLSCAASGYSITDFLMYWVRQAPGKGLEWVAWIDPEDGETKYAQKFQSKARFTISRDNAKNSLYLQMNSLRAEDTAVYYCARWGYITDYFYGGFTYWGRGTLVTVSS
VL: DIQMTQSPPVLSASVGDRVTLSCKASQNINKNLDWYQQKHGEAPKLLIYHTNTLQMGIPSRFSGSGSGTDYALTITSLQPEDVATYYCYQYNSGPTFGAGTKLELRR
modifications: CPI agent through an AcLysValCitPABC linker, DAR ~2; site not stated for this antibody
B6: 3D1-CPI (antibody, V domains shown)
VH: EVQLQQSGPELVKPGASVKMSCKASGYTFSDYFMKWVKQSHGKRLEWIGDINPNNGETFYNHHFKGKATLTIDKSSSTAYMQLNSLTSDDSAVYYCARPRRGNAMDFWGQGTSVTVSS
VL: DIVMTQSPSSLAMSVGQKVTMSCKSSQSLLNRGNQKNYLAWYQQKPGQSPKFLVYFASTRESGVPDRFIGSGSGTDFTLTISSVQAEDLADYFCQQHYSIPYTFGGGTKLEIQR
modifications: CPI agent through an AcLysValCitPABC linker, DAR ~2; site not stated for this antibody

Key:
Assay in all cases: cell-based or functional assay
[1] = molecular target: T1, CD123 (alpha chain of the interleukin-3 receptor) (human, UniProt P26951 19-378)
T1 sequence (P26951 19-378): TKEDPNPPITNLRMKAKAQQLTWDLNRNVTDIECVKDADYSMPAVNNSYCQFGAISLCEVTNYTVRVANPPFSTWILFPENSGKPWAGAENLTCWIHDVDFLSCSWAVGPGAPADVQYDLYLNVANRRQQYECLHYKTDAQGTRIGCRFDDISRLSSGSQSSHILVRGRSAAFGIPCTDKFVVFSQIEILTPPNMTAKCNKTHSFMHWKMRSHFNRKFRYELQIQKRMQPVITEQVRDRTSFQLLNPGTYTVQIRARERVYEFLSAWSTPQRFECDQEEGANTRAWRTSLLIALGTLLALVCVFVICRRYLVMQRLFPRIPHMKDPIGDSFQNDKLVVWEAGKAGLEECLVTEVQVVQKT

[2] = molecular target: T1, CD123 (alpha chain of the interleukin-3 …); remark: listed apart in the source
[3] = molecular target: T1, CD123 (alpha chain of the interleukin-3 …); remark: listed apart in the source
[4] = molecular target: T1, CD123 (alpha chain of the interleukin-3 …); remark: listed apart in the source

Row | Binder | IC50 (ng/mL), 2D in vitro cytotoxicity (CelltiterGlo, 96 hours), JVM3 cells (CD123 ++) [1] | IC50 (ng/mL), 2D in vitro cytotoxicity (CelltiterGlo, 96 hours), MOLM13 cells (CD123 +++) [1] | IC50 (ng/mL), 2D in vitro cytotoxicity (CelltiterGlo, 96 hours), MV411 cells (CD123 +++) [1] | IC50 (ng/mL), cytotoxicity in MOLM13 cells, IL-3 at 0 ng/ml [2] | IC50 (ng/mL), cytotoxicity in MOLM13 cells, IL-3 at 0.3 ng/ml [2] | IC50 (ng/mL), cytotoxicity in MOLM13 cells, IL-3 at 1 ng/ml [2] | IC50 (ng/mL), cytotoxicity in MV4-11 cells, IL-3 at 0 ng/ml [2] | IC50 (ng/mL), cytotoxicity in MV4-11 cells, IL-3 at 0.3 ng/ml [2] | IC50 (ng/mL), cytotoxicity in MV4-11 cells, IL-3 at 1 ng/ml [2] | also measured
1 | B1 | 0.59 ng/mL | 0.22 ng/mL | 0.4 ng/mL | 0.23 ng/mL | 0.23 ng/mL | 0.19 ng/mL | 1.25 ng/mL | 1.13 ng/mL | 1.13 ng/mL | 
2 | B2 | 0.69 ng/mL | 0.25 ng/mL | 0.41 ng/mL | 0.14 ng/mL | 0.12 ng/mL | 0.14 ng/mL | 1.07 ng/mL | 1.05 ng/mL | 0.21 ng/mL | IC50 (ng/mL), 2D in vitro cytotoxicity (CelltiterGlo, 96 hours), Granta519 cells (CD123 ++) [1]: 0.38 ng/mL; IC50 (ng/mL), 2D in vitro cytotoxicity (CelltiterGlo, 96 hours), NB4 cells (CD123 +) [1]: 63.9 ng/mL; IC50 (ng/mL), 2D in vitro cytotoxicity (CelltiterGlo, 96 hours), OCI-AML3 cells (CD123 +) [1]: 2.65 ng/mL
3 | B3 |  |  |  |  |  |  |  |  |  | IC50 (ng/mL), in vitro cytotoxicity, Granta519 cells (CD123 ++) [3]: 0.26 ng/mL; IC50 (ng/mL), in vitro cytotoxicity, JVM3 cells (CD123 ++) [3]: 1.3 ng/mL; IC50 (ng/mL), in vitro cytotoxicity, MOLM13 cells (CD123 +++) [3]: 0.33 ng/mL; IC50 (ng/mL), in vitro cytotoxicity, MV411 cells (CD123 +++) [3]: 0.51 ng/mL; IC50 (ng/mL), in vitro cytotoxicity, NB4 cells (CD123 +) [3]: 38.6 ng/mL; IC50 (ng/mL), in vitro cytotoxicity, OCI-AML3 cells (CD123 +) [3]: 2.58 ng/mL
4 | B4 |  |  |  |  |  |  |  |  |  | IC50 (ng/mL), in vitro cytotoxicity, MOLM13 cells (CD123 +++) [4]: 0.0508 ng/mL; IC50 (ng/mL), in vitro cytotoxicity, MV4-11 cells (CD123 +++) [4]: 0.125 ng/mL
5 | B5 |  | 0.32 ng/mL |  |  |  |  |  |  |  | 
6 | B6 |  | 0.33 ng/mL |  |  |  |  |  |  |  | 
